Biological target: T1, E. coli expressed human GP73 (amino acids 63 to 400) with C-terminal 6xHis tag (human, UniProt Q8NBJ4 64-401)
T1 construct: No human Fc, not glycosylated; also called GP73 produced in E. coli; E. coli GP73
T1 sequence: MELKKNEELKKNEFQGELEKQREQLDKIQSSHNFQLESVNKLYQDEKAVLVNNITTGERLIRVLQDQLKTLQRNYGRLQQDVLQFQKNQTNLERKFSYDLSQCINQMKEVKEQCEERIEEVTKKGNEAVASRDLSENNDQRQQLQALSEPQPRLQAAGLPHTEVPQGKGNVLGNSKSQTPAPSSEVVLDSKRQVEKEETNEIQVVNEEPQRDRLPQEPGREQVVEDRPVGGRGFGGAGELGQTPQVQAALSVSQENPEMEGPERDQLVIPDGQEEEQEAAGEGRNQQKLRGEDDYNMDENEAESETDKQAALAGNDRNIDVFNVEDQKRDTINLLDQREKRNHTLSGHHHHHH
Assay: Western blot on E. coli expressed GP73 antigen
Experimental: The mammalian cell (HEK and CHO) expressed GP73-hFc or E. coli expressed GP73, as described above, were electrophoresed in a 4-20% SDS-PAGE gel. […] The nitrocellulose membrane was blocked with PBS buffer containing 5% non-fat dry milk and 0.05% Tween 20 for about 1 hr. The nitrocellulose membrane was incubated with an appropriate amount of anti-GP73 monoclonal antibody in 10 mL of 2.5% non-fat dry milk and 0.05% Tween 20 PBS buffer, pH 7.2. The nitrocellulose membranes were washed with 0.05% Tween 20/PBS, pH 7.2, incubated with goat anti-mouse IgG antibody conjugated with HRP for 1 hr at room temperature, and washed with 0.05% Tween 20/PBS buffer. Antibody bound to the GP73 protein was visualized by the addition of freshly prepared metal enhanced 3,3′-Diaminobenzidine in stable peroxide buffer (Pierce, Ill.).

binding result: binds
B1: anti-GP73 monoclonal antibody 1B-4863 (antibody, V domains shown)
VH: QVQLKESGPGLVAPSQSLSITCTVSGFSLTSYGVHWVRQSPGKGLEWLGVIWTGGSTNYNSALMSRLSISKDNSESQVFLKVNSLQTDDTGMYYCARDPGTDYFDYWGQGTTLTVSS
VL: DIVMTQSHKFMSTSIGDRVSISCKASQDVSIDVSWYQQKPGQSPTLLIYSASYRYIGVPDRFTGSGSGTAFTFTISSVQAEDLAIYYCQQHFTTPLTFGAGTKLELKR
notes: Biotin labelled in some assays; also called mAb 1B-4863; 1B-4863-Bt

Reference: US20140271651A1 (AbbVie / Abbott, published 2014)
